Columns and labels:
[1] = biological target: T1, EGFRviii on U87-EGFRviii cells (human, UniProt P00533); experiment: flow cytometry on U87-EGFRviii cells, 1, 10, 100 ug/ml, anti-Fc Alexa-647 secondary
T1 construct: the U87-EGFRviii cells also carry whatever EGFR the parent U87 line carries; a shift on these cells cannot be split between the two forms
Method: The cells were detached by trypsin and incubated with 1, 10, or 100 ug/ml EGFR Ab in 2% BSA in PBS at 4° ° C. After 30 minutes, cells were washed with 2% BSA in PBS. […] The cells were analyzed by flow cytometry after washing.

BSA = biological target: T2, BSA (bovine, UniProt P02769); experiment: ELISA on coated recombinant proteins, title "Titer of purified mAb"; antibody concentration not given
T2 construct: also called bovine serum albumin
T2 sequence (P02769 25-607 limits assumed): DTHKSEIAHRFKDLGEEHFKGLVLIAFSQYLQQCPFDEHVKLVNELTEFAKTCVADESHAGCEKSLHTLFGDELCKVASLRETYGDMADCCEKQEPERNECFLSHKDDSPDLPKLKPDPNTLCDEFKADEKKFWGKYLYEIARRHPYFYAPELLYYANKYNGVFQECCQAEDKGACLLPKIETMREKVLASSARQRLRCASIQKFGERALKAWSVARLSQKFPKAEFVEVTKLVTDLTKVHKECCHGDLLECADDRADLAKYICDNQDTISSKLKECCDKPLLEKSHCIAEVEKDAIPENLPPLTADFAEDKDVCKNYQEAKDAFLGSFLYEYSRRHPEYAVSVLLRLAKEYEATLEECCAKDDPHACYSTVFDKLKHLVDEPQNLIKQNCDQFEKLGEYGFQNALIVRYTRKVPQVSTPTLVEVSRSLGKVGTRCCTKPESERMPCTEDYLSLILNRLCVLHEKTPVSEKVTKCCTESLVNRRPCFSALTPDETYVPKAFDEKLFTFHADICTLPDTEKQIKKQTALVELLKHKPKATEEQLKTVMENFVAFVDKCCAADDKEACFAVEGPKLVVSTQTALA

[2] = biological target: T3, D4-IgA1 (extracellular domain IV of human EGFR fused with human IgA1.Fc) (human); experiment: ELISA: EGFR-IgA1 immobilised in microwells, hybridoma culture supernatant, goat anti-mouse IgG.Fc-HRP, OD450
T3 construct: also called EGFR-IgA1; human EGFR-IgA
T3 chain: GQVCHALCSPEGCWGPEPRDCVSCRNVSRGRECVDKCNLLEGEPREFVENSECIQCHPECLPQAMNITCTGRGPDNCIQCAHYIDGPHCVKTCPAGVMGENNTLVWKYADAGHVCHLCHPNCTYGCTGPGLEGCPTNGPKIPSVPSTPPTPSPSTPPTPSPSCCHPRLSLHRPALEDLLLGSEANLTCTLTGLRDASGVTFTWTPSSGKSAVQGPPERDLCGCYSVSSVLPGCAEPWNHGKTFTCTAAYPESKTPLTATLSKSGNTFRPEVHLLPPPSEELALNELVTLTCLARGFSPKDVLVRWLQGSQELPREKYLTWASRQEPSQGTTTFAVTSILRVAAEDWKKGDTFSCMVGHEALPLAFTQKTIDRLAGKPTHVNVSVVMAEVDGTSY

EGFR domain IV [3] = biological target: T4, EGFR domain IV (human, UniProt P00533 505-645); experiment: SPR, EGFR domain IV immobilised on CM5 chip, Fab injected
T4 construct: Immobilised on a CM5 chip for SPR; also called domain IV of EGFR; EGFR D4
Method: EGFR domain IV was immobilized on a CM5 chip at a density of 500 RU through EDC/NHS coupling. […] In another experiment, EGFR domain IV was again immobilized on a CM5 chip at a density of 500 RU through EDC/NHS coupling. […] The samples were injected at concentrations of 300 nM, 100 nM, 30 nM, 10 nM, and 3 nM (FIGS. 15A-15C). The sensorgram curves were subsequently analyzed.

EGFR domain IV [4] = biological target: T4, EGFR domain IV; experiment: SPR, EGFR domain IV immobilised on CM5 chip, IgG injected
EGFR domain IV [5] = biological target: T4, EGFR domain IV; experiment: as above; remark: listed apart in the source
EGFR domain IV [6] = biological target: T4, EGFR domain IV; experiment: SPR, EGFR domain IV immobilised on CM5 chip, IgG injected; Table 18 (second kinetic set, apart from Table 17)

B1: EGFRD4-34Ab (antibody, V domains shown)
VH: QIQLVQSGPELKKPGETVKISCKASGYTFTNYGMNWVKQAPGKGLKWMGWINTYTGDPTYADDFKGRFAFSLETSASTAYLQINNLKNEDMATYFCARRISTMITTWFAYWGQGTLVTVSA
VL: DIQMTQSPASLSASVGETVTITCRASENIYSYLAWFQQRQGKSPQLLVYNAKTLTEGVPSRFSGSGSGTQFSLKINSLQPEDFGSYYCQHYQVTPYTFGGGTKLEIK
notes: also called Clone # 34
binding result [1]: binds

B2: 5C8 hybridoma clone antibody (mouse, culture supernatant) (antibody, V domains shown)
VH: EVQLQQSGPELVKTGASVKISCKASGYSFTGYYMHWVKQSHGKSLEWIGYINCYNGAINYNQKFKGKATFTVDTSSSTVYMQFNSLTSEDSAVYYCVRAGIHYDYDEAWFAYWGQGTLVTVSA
VL: QAVVTQESALTTSPGETVTLTCRSSTGPVIIRNYANWVQEKPDHLFTGLIGGTNNRAPGVPARFSGSLIGDKAALTITGAQTEDEAIYFCALWYNNHWVFGGGTKLTVL
notes: Mouse antibody from hybridoma supernatant; also called 5C8 clone; Clone 5C8
binding result (BSA): no binding
binding result [2]: binds

B3: EGFRD4-5C8 Fab (Fab, V domains shown)
VH: EVQLQQSGPELVKTGASVKISCKASGYSFTGYYMHWVKQSHGKSLEWIGYINCYNGAINYNQKFKGKATFTVDTSSSTVYMQFNSLTSEDSAVYYCVRAGIHYDYDEAWFAYWGQGTLVTVSA
VL: QAVVTQESALTTSPGETVTLTCRSSTGPVIIRNYANWVQEKPDHLFTGLIGGTNNRAPGVPARFSGSLIGDKAALTITGAQTEDEAIYFCALWYNNHWVFGGGTKLTVL
notes: Fab of clone 5C8
Kd (EGFR domain IV [3]): 170 nM
koff (EGFR domain IV [3]): 0.0305 s⁻¹
kon (EGFR domain IV [3]): 179000 M⁻¹ s⁻¹

B4: chimeric anti-domain IV EGFR antibody clone 5C8 (EGFRD4-5C8) (antibody, V domains shown)
VH: EVQLQQSGPELVKTGASVKISCKASGYSFTGYYMHWVKQSHGKSLEWIGYINCYNGAINYNQKFKGKATFTVDTSSSTVYMQFNSLTSEDSAVYYCVRAGIHYDYDEAWFAYWGQGTLVTVSA
VL: QAVVTQESALTTSPGETVTLTCRSSTGPVIIRNYANWVQEKPDHLFTGLIGGTNNRAPGVPARFSGSLIGDKAALTITGAQTEDEAIYFCALWYNNHWVFGGGTKLTVL
notes: also called 5C8 IgG; 5C8 mAb
Kd (EGFR domain IV [4]): 0.487 nM
koff (EGFR domain IV [4]): 0.000249 s⁻¹
kon (EGFR domain IV [4]): 512000 M⁻¹ s⁻¹
koff (EGFR domain IV [5]): 0.00013 s⁻¹
kon (EGFR domain IV [5]): 604000 M⁻¹ s⁻¹
Kd (EGFR domain IV [6]): 0.214 nM

— US20240228629A1 (CITY OF HOPE, published 2024)
